Results reported in US9605038B2, “Fusion peptide comprising dhFas-1 domain and MMP substrate and use thereof for preventing and treating rheumatoid arthritis” (Kyungpook National University Industry-Academic Cooperation …, priority 2010, dated 2017).
Positions count from the first letter of the chain named. Entries after “also recorded” stand apart in the source; their conditions may differ.

Legend:
[1] = biological target: MMP3 (Homo sapiens, UniProt P08254); test: Enzymatic digestion test, MMP3; assay type: biochemical; conditions: 3 ug peptide, MMP3 10, 50, 100 ng, 37° C. 4 hours
Procedure: (§1) 3 ug of synthesized mdhFas-1-MMPsubstrate structure modified protein, together with MMP1 (5 ng, 10 ng and 50 ng), MMP2 (100 ng, 200 ng and 800 ng), MMP3 (10 ng, 50 ng and 100 ng), cathepsin D (5 ng, 10 ng and 50 ng), cathepsin L (100 ng, 200 ng and 800 ng), and cathepsin K (10 ng, 50 ng and 100 ng), was mixed with enzyme buffer (150 mM NaCl, 5 mM. CaCl2, 20 mM Tris-HCl pH7.5), and reacted at 37° C. for 4 hours. The resultant product was subjected to electrophoresis through 15% polyacrylamide gel, transferred to a Nitrocellulose Membrane (Schleicher & Schuell), blocked at room temperature for 1 hour with TBST solution containing 3% BSA (20 mmole/L Tris-HCl, 137 mmole//l NaCl, 0.1% Tween-20), washed TBST solution three times (each for 10 minutes), and reacted with primary antibody (anti-Histidine or anti-Bigh3) for 1 hour. The resultant product was washed with TBST solution three times (each for 10 minutes), reacted with a secondary antibody conjugated to horseradish peroxidase (HRP) for 1 hour, washed TBST solution three times (each for 10 minutes), and visualized by ECL (Amersham Biosciences, UK) so as to detect the change in the amount of mdhFas-1-MMPsubstrate-RGD structural peptide.

[2] = tested on: collagen-induced arthritis (CIA) mouse model; test: Arthritis therapeutic effect in CIA mouse (clinical arthritis index); assay type: in vivo
Procedure: A CIA mouse model having the similar characteristic to that of human rheumatoid arthritis was prepared according to the description in a known literature (Protocol for the successful induction of collagen-induced arthritis (CIA) and collagen antibody-induced arthritis (CAIA) in mice. Chondrex, Redmond, Wash.): Bovine type 2 collagen 100 ug was mixed with Freund's complete adjuvant, and hypodermically inoculated into the tail of the mouse. After 3 weeks, bovine type 2 collagen 100 ug was mixed with Freund's incomplete adjuvant, and inoculated again into the tail of the mouse. Then, the mouse was used in the experiment.
In order to find out the therapeutic effect of arthritis in a CIA model, for four weeks from the onset (the 23rd day) of arthritis following the second injection of the bovine type 2 collagen, MFK23 or MFK24 was daily injected into the abdominal cavity in doses of 0.1 mg/kg, 1 mg/kg, 10 mg/kg and 30 mg/kg. As a control group, the same amount of PBS was injected into the abdominal cavity. From the 23rd day to the 50th day, by using a Clinical arthritis index, the severity of arthritis was daily determined. The determination was based on the following data.
0; no symptom, 1; edema in one articulation or light edema, 2; severe edema in 2 or more articulations, 3; severe edema in most articulations, 4; severe edema in the whole of legs.

[3] = biological target: T1, cathepsin K (Homo sapiens, UniProt P43235); test: Enzymatic digestion test, cathepsin K; assay type: biochemical; conditions: 3 ug peptide, cathepsin K 10, 50, 100 ng, 37° C. 4 hours
T1 sequence (P43235 115-329): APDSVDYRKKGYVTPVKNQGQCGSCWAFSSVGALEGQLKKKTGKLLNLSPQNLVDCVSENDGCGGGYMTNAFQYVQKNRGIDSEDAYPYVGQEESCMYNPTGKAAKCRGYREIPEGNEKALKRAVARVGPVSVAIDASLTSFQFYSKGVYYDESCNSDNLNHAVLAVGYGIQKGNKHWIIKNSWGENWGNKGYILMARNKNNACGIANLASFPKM
Procedure: as §1

[4] = Toxicity test in CIA mouse (weight, serologic test, blood test); conditions: for body weight change compared to control group: 22nd day vs 48th day; for overall toxicity: serologic test, blood test, weight; for ALT / AST / BUN / Crea / PLT / RBC / WBC: CIA model, 4 weeks
Procedure: On the 48th day, a serologic test and a blood test were carried out.

[5] = tested on: mouse fibroblast (NIH3T3); test: βig-h3-mediated cell adhesion test, NIH3T3; assay type: cell-based; conditions: for βig-h3-mediated cell adhesion: NIH3T3, βig-h3 5 ug/ml coat
Procedure: (§2) Human βig-h3 was introduced into a 96-well plate at a concentration of 5 ug/ml, and coated for 14 hours at 4° C. In DMEM+0.5% BSA (Bovine Serum Albumin) culture medium, human fibroblast (NIH3T3) was introduced, and hsdhFas-1 peptide at concentrations was injected thereto, followed by mixing. The resultant mixture was cultured at 37° C. for 30 minutes, and plated on a coated well. It was cultured for 2 hours, and washed with PBS (phosphate buffered saline) so as to remove unattached cells, and then added with a substrate (4-Nitrophenyl N-acetyl-β-D-glucosaminide, Sigma, U.S.) to be activated by β-N-acetylglucosaminidase within the cell, followed by culturing at 37° C. for 1 hour. Then, a glycine EDTA solution (0.5M EDTA, 50 mM glycine, pH 10.4) was added thereto, and the coloring extent according to the number of attached cells was measured by absorbance.
Also, a structurally modified peptide of a fas-1 domain of mouse βig-h3 was synthesized as a recombinant peptide (hereinafter, referred to as ‘mdhFas-1peptide’, see FIG. 2), and a mouse cell line, that is, NIH3T3 cell line, was used to test the inhibiting effect by mdhFas-1 peptide on adhesion and migration of a Synovial membrane cell in the same manner as that in the test using human βig-h3.
as §2, with “βig-h3” for “Human βig-h3”, “mouse” for “human”, “MFK23, MFK24, MFK25 or MFK27” for “hsdhFas-1 peptide”

[6] = tested on: ICAM-1 and RANKL; test: Immunoblot of ICAM-1 and RANKL in CIA mouse model; assay type: in vivo

Sequence of MMP3 (P08254 100-477, species assumed): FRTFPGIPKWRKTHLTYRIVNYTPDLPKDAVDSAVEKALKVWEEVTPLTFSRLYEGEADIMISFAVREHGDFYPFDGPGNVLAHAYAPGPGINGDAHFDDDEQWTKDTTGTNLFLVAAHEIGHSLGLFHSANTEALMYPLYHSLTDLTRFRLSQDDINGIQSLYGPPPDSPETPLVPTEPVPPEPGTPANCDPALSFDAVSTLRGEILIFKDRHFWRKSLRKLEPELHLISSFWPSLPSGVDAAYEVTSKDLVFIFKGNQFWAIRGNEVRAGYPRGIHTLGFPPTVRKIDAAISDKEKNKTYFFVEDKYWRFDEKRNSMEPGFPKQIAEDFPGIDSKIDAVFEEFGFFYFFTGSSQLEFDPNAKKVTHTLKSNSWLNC

B1: MFK23: fusion peptide having sequential links of mdhFas-1, MMP2 substrate GPLGVRG (SEQ ID NO: 5), and QERGDSLA (SEQ ID NO: 10) (protein)
chain: QAMPPEELNKLLANAKELTNILKYHIGDEILVSGGIGALVRLKSLQGDKLEVSSKNNVVSVNKEPVAETDIMEFGPLGVRGVDGQERGDSLAGLE
modifications: MFK23
With B1 the “cleavage through treatment with MMP-3” value [1] was “not cleaved”, the “arthritis inhibiting effect (clinical arthritis index), in words” value ([2]; daily into the abdominal cavity) was “excellent effect on arthritis” and the “cleavage through treatment with cathepsin K” value [3] was “not cleaved”. For the same molecule, the “death during the therapy period” value ([4]; CIA mouse) was “No mouse died”, the “body weight change compared to control group” value ([4]; CIA mouse) was “maintained similarly to that of the control group” and the overall toxicity ([4]; CIA mouse) was “a low toxicity and a low dangerousness”. The “concentration at which treatment inhibited the adhesion” value ([5]; NIH3T3, FIG. 14) was at least 5 µM and the βig-h3-mediated cell adhesion [5] was “even at a very low concentration can inhibit the cell adhesion; also recorded: concentration-dependently inhibited”.

B2: MFK24: fusion peptide having sequential links of mdhFas-1, MMP1 substrate GPQGIAG (SEQ ID NO: 6), and QERGDSLA (SEQ ID NO: 10) (protein)
chain: B1 chain with L77Q, V79I, R80A
modifications: MFK24
In the case of B2, the “cleavage through treatment with MMP-3” value [1] is reported as “not cleaved”, the “concentration relative to conventional mdhFas-1 or MFK12 that shows a higher arthritis inhibiting effect” value [2] is reported as 1/100 and the “arthritis inhibition (clinical arthritis index)” value ([2]; 0.1 mg/kg daily into the abdominal cavity, four weeks) is reported as “about 70%”. The “cleavage through treatment with cathepsin K” value [3] was “not cleaved”, the ALT ([4]; 0.1 mg/kg) was 37.8 ± 7.1 U/L and the AST ([4]; 0.1 mg/kg) was 224.3 ± 13 U/L. For the same molecule, the BUN ([4]; 0.1 mg/kg) was 19.0 ± 3.3 mg/dL, the Crea ([4]; 0.1 mg/kg) was 0.54 ± 0.10 mg/dL and the PLT ([4]; 0.1 mg/kg) was 1280.2 ± 284 ×10^3/ul. For the same molecule, the RBC ([4]; 0.1 mg/kg) was 12.3 ± 0.7 ×10^6/ul, the WBC ([4]; 0.1 mg/kg) was 5.0 ± 1.2 ×10^3/ul and the ALT ([4]; 1 mg/kg) was 40.6 ± 7.2 U/L. The AST ([4]; 1 mg/kg) was 270.5 ± 17 U/L, the BUN ([4]; 1 mg/kg) was 21.2 ± 3.4 mg/dL and the Crea ([4]; 1 mg/kg) was 0.54 ± 0.14 mg/dL. For the same molecule, the PLT ([4]; 1 mg/kg) was 1155.3 ± 184 ×10^3/ul, the RBC ([4]; 1 mg/kg) was 10.9 ± 1.7 ×10^6/ul and the WBC ([4]; 1 mg/kg) was 3.7 ± 0.5 ×10^3/ul. The ALT ([4]; 10 mg/kg) was 43.6 ± 14.2 U/L, the AST ([4]; 10 mg/kg) was 222.0 ± 25 U/L and the BUN ([4]; 10 mg/kg) was 20.4 ± 4.4 mg/dL. For the same molecule, the Crea ([4]; 10 mg/kg) was 0.54 ± 0.11 mg/dL, the PLT ([4]; 10 mg/kg) was 1050.1 ± 359 ×10^3/ul and the RBC ([4]; 10 mg/kg) was 11.4 ± 1.5 ×10^6/ul. The WBC ([4]; 10 mg/kg) was 5.0 ± 1.8 ×10^3/ul, the ALT ([4]; 30 mg/kg) was 28.9 ± 8.2 U/L and the AST ([4]; 30 mg/kg) was 286.6 ± 48 U/L. For the same molecule, the BUN ([4]; 30 mg/kg) was 12.4 ± 4.8 mg/dL, the Crea ([4]; 30 mg/kg) was 0.33 ± 0.02 mg/dL and the PLT ([4]; 30 mg/kg) was 674.7 ± 111 ×10^3/ul. For the same molecule, the RBC ([4]; 30 mg/kg) was 12.4 ± 0.1 ×10^6/ul, the WBC ([4]; 30 mg/kg) was 6.1 ± 1.1 ×10^3/ul and the “death during the therapy period” value ([4]; CIA mouse) was “No mouse died”. The “body weight change compared to control group” value ([4]; CIA mouse) was “maintained similarly to that of the control group”, the “bilirubin and creatine compared to control group” value ([4]; CIA mouse, 48th day) was “no significant difference” and the “erythrocytes, leukocytes, platelets and liver function values (AST and ALT) compared to control” value ([4]; CIA mouse, 48th day) was “did not show abnormalities”. The overall toxicity ([4]; CIA mouse) was “a low toxicity and a low dangerousness”, the “efficacy on ICAM-1 and RANKL expression at low dose” value ([6]; 0.1 mg/kg) was “the high efficacy was maintained” and the “expression of ICAM-1 and RANKL in the inflammatory region” value ([6]; according to doses, FIG. 22) was “reduced”. The adhesion inhibiting effect ([5]; NIH3T3, concentration of 0.5uM, FIG. 15C) was at least 80% and the βig-h3-mediated cell adhesion [5] was “even at a very low concentration can inhibit the cell adhesion; also recorded: concentration-dependently inhibited”.
